The results in this text go back to paper PMC6751169, “Modular enzyme assembly for enhanced cascade biocatalysis and metabolic flux” (Nature Communications, 2019).

This data set deals with the molecule itself. The data set can be described thus: not stated; oligomeric state of the untagged enzymes; the sentence points to Supplementary Figs. 1 and 2.

B1: MenD (2-succinyl-5-enolpyruvyl-6-hydroxy-3-cyclohexadiene-1-carboxylate synthase), untagged (enzyme, E. coli, UniProt P17109 1-556, looked up)
chain: MSVSAFNRRWAAVILEALTRHGVRHICIAPGSRSTPLTLAAAENSAFIHHTHFDERGLGHLALGLAKVSKQPVAVIVTSGTAVANLYPALIEAGLTGEKLILLTADRPPELIDCGANQAIRQPGMFASHPTHSISLPRPTQDIPARWLVSTIDHALGTLHAGGVHINCPFAEPLYGEMDDTGLSWQQRLGDWWQDDKPWLREAPRLESEKQRDWFFWRQKRGVVVAGRMSAEEGKKVALWAQTLGWPLIGDVLSQTGQPLPCADLWLGNAKATSELQQAQIVVQLGSSLTGKRLLQWQASCEPEEYWIVDDIEGRLDPAHHRGRRLIANIADWLELHPAEKRQPWCVEIPRLAEQAMQAVIARRDAFGEAQLAHRICDYLPEQGQLFVGNSLVVRLIDALSQLPAGYPVYSNRGASGIDGLLSTAAGVQRASGKPTLAIVGDLSALYDLNALALLRQVSAPLVLIVVNNNGGQIFSLLPTPQSERERFYLMPQNVHFEHAAAMFELKYHRPQNWQELETAFADAWRTPTTTVIEMVVNDTDGAQTLQQLLAQVSHL
notes: MenD, 2-succinyl-5-enolpyruvyl-6-hydroxy-3-cyclohexadiene-1-carboxylate synthase, E. coli; subunit 63 kDa; 'Untagged' means without RIAD or RIDD; also called untagged MenD; non-tagged enzyme
For B1, the “stoichiometry N” value is 4.

What is called stoichiometry N is the number of molecules, sites or subunits per partner or assembly.
